Data on 3 substances can be found in article PMC3488000.

Assay in all cases: SEC; Superdex 200 on an AKTA FPLC, 20 mM Tris, 1M NaCl, pH 8.0; column calibrated with globular protein standards; oligomeric state = estimated net mass divided by the calculated monomer mass (16.3 kDa)
The target of test [1] is FbFP F37T (Pseudomonas putida KT2440) (UniProt Q88JB0).
Test [2] deals with FbFP F37S (Pseudomonas putida KT2440) (UniProt Q88JB0).
Test [3] has as its target flavin-binding fluorescent protein (FbFP) from Pseudomonas putida (Pseudomonas putida KT2440) (UniProt Q88JB0).

The stoichiometry N is a count of units in the complex or per binding partner. In the case of “FbFP F37T (from UniProt Q88JB0 1-151) (natural protein)”, the stoichiometry N in test [1] was 1.87.

Consider “FbFP F37S (from UniProt Q88JB0 1-151) (natural protein)”, for which, in test [2], the stoichiometry N was 1.78.

With “flavin-binding fluorescent protein (FbFP) from Pseudomonas putida (from UniProt Q88JB0 1-151) (natural protein)”, the stoichiometry N in test [3] was 1.81.
